{
  "source": "patent US20230241243A1",
  "about": "“CARRIER PARTICLE-DRUG CONJUGATES, SELF-IMMOLATIVE LINKERS, AND USES THEREOF” (priority 2020, published 2023)",
  "assay": "Drug-release assay of nanoparticle-conjugated linker-payloads under cleavage conditions (Cat-B, redox-responsive or pH-sensitive cleaving study), RP-HPLC",
  "assay_type": "in vitro ADME",
  "conditions": "linker-payload conjugated to DBCO-functionalized silica nanoparticle, 37° C., 24 hours",
  "method_in_brief": "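Azide linker-drugs were click-conjugated to DBCO-functionalized ultrasmall silica nanoparticles and incubated under cleavage conditions, e.g., Cat-B in 25 mM MES, 5 mM DTT, pH 5.0. Released versus non-released drug was quantified by C18 RP-HPLC peak area. Gradients were 0.01% TFA water/acetonitrile for protease/redox linkers and water/acetonitrile for pH-sensitive linkers.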",
  "data": [
    {"smiles": "CC[C@@]1(O)C(=O)OCc2c1cc1n(c2=O)Cc2c-1nc1cc(F)c(C)c3c1c2[C@@H](NC(=O)OCc1ccc(NC(=O)[C@H](CCCNC(N)=O)NC(=O)[C@@H](NC(=O)CCCCCCN=[N+]=[N-])C(C)C)cc1)CC3", "note": "[Example 30, 4-((S)-2-((S)-2-(7-Azidoheptanamido)-3-methylbutanamido)-5-ureidopentanamido)benzyl ((1S,9S)-9-ethyl-5-fluoro-9-hydroxy-4-methyl-10,13-dioxo-2,3,9,10,13,15-hexahydro-1H,12H-benzo[de]pyrano[3′,4′:6,7]indolizino[1,2-b]quinolin-1-yl)carbamate]", "values": [
      {"measurement": "% of Payload Release in 24 Hours Under Cleavage Conditions", "value": "++ (‘++’ indicates 26-50% release)"}
    ]},
    {"smiles": "CCc1c2c(nc3ccc(OCCCSSC(C)(C)CNC(=O)CCOCCOCCOCCOCCOCCOCCOCCOCCOCCN=[N+]=[N-])cc13)-c1cc3c(c(=O)n1C2)COC(=O)[C@]3(O)CC", "note": "[Example 55, (S)-1-Azido-N-(2-((3-((4,11-diethyl-4-hydroxy-3,14-dioxo-3,4,12,14-tetrahydro-1H-pyrano[3′,4′:6,7]indolizino[1,2-b]quinolin-9-yl)oxy)propyl)disulfanyl)-2-methylpropyl)-3,6,9,12,15,18,21,24,27-nonaoxatriacontan-30-amide]", "values": [
      {"measurement": "% of Payload Release in 24 Hours Under Cleavage Conditions", "value": "+ (‘+’ indicates 5-25% release)"}
    ]},
    {"smiles": "CC[C@@]1(O)C(=O)OCc2c1cc1n(c2=O)Cc2c-1nc1cc(F)c(C)c3c1c2[C@@H](NC(=O)[C@@H](CCCNC(N)=O)NC(=O)[C@@H](NC(=O)CCOCCOCCOCCOCCOCCOCCOCCOCCOCCOCCOCCN=[N+]=[N-])C(C)C)CC3", "note": "[Example 50, 1-azido-N-((S)-1-(((R)-1-(((1S,9S)-9-ethyl-5-fluoro-9-hydroxy-4-methyl-10,13-dioxo-2,3,9,10,13,15-hexahydro-1H,12H-benzo[de]pyrano[3′,4′:6,7]indolizino[1,2-b]quinolin-1-yl)amino)-1-oxo-5-ureidopentan-2-yl)amino)-3-methyl-1-oxobutan-2-yl)-3,6,9,12,15,18,21,24,27,30,33-undecaoxahexatriacontan-36-amide]", "values": [
      {"measurement": "% of Payload Release in 24 Hours Under Cleavage Conditions", "value": "+ (‘+’ indicates 5-25% release)"}
    ]},
    {"smiles": "CCc1c2c(nc3ccc(OCc4ccc(NC(=O)[C@H](CCCNC(N)=O)NC(=O)[C@@H](NC(=O)CCOCCOCCOCCOCCOCCOCCOCCOCCOCCN=[N+]=[N-])C(C)C)cc4)cc13)-c1cc3c(c(=O)n1C2)COC(=O)[C@]3(O)CC", "note": "[Example 48, 1-azido-N-((S)-1-(((S)-1-((4-((((S)-4,11-diethyl-4-hydroxy-3,14-dioxo-3,4,12,14-tetrahydro-1H-pyrano[3′,4′:6,7]indolizino[1,2-b]quinolin-9-yl)oxy)methyl)phenyl)amino)-1-oxo-5-ureidopentan-2-yl)amino)-3-methyl-1-oxobutan-2-yl)-3,6,9,12,15,18,21,24,27-nonaoxatriacontan-30-amide]", "values": [
      {"measurement": "% of Payload Release in 24 Hours Under Cleavage Conditions", "value": "+ (‘+’ indicates 5-25% release)"}
    ]},
    {"smiles": "CCc1c2c(nc3ccc(OC(C(=O)OC)c4ccc(NC(=O)[C@H](CCCNC(N)=O)NC(=O)[C@@H](NC(=O)CCOCCOCCOCCOCCOCCOCCOCCOCCOCCN=[N+]=[N-])C(C)C)cc4)cc13)-c1cc3c(c(=O)n1C2)COC(=O)[C@]3(O)CC", "note": "(stereo partly drawn) [Example 13-R isomer, Methyl 2-(4-((32S,35S)-1-azido-32-isopropyl-30,33-dioxo-35-(3-ureidopropyl)-3,6,9,12,15,18,21,24,27-nonaoxa-31,34-diazahexatriacontan-36-amido)phenyl)-2-(((S)-4,11-diethyl-4-hydroxy-3,14-dioxo-3,4,12,14-tetrahydro-1H-pyrano[3′,4′:6,7]indolizino[1,2-b]quinolin-9-yl)oxy)acetate]", "values": [
      {"measurement": "% of Payload Release in 24 Hours Under Cleavage Conditions", "value": "+ (‘+’ indicates 5-25% release)"}
    ]}
  ]
}
